Experiment [1] concerns the target fluorescein-EGR-chloromethylketone-labeled thrombin (bovine) (bovine). The experiment can be described thus: other fluorescence titration.
The target of the next experiment is TMEGF456 D349N. The experiment can be described thus: SPR.
Another experiment concerns the target TMEGF456 E357Q. The experiment can be described thus: SPR.
The next experiment addresses TMEGF456 M388L. The experiment can be described thus: SPR.
For another experiment, the target named is TMEGF456 Y358F. Description: SPR.

For the substance TMEGF45 D400E (domain or fragment), the Kd in experiment [1] is 49 nM.
On the same count and under the same terms, in the case of TMEGF45 E357Q (domain or fragment) it was 55 nM; in that of TMEGF45 wild type (domain or fragment), 68 nM.
In the case of “thrombin (PPACK-thrombin in the SPR; active thrombin in the protein C activation assay) (enzyme)”, the equilibrium dissociation constant (Kd) with TMEGF456 D349N was found to be 4.2 nM; with TMEGF456 E357Q, 5.2 nM; in the experiment with TMEGF456 M388L it was 4.4 nM; with TMEGF456 Y358F it was 2.6 nM.
Consider TMEGF45 D349N (domain or fragment), for which the Kd in experiment [1] was 43 nM.
Regarding TMEGF45 M388L (domain or fragment), the dissociation constant (Kd) in experiment [1] turned out to be 57 nM.

(Values after publication PMC2630536.)
